In patent US20090087428A1:

Target: GST-huFcγRIIA(R131) (human) [GST: P08515]
Test: ELISA, plate-coated GST fusion (FIG. 8)

B1: Antibody 5A6.2.1 (anti-human FcγRIIB monoclonal antibody) (antibody)
VH: EVKLEESGGGLVQPGGSMKLSCVASGFTFSDAWMDWVRQSPERGLEWVAEIRSKPNNHATYYAESVKGRFTISRDDSKSSVYLQMTSLRPEDTGIYYCTHFDYWGQGTTLTVSSAKTTGPSVFPLAPSSKSTSGGTAALGCLVKDYFPEPVTVSWNSGALTSGVHTFPAVLQSSGLYSLSSVVTVPSSSLGTQTYICNVNHKPSNTKVDKKVEPKSCDKTHT
VL: DIQMTQSPSSLSASLGERVSLTCRASQEISGYLSWFQQKPDGTIKRLIYAASALDSGVPKRFSGSWSGSDYSLTISSLESEDFADYYCLQYVSYPLTFGAGTKLELKRTVAAPSVFIFPPSDEQLKSGTASVVCLLNNFYPREAKVQWKVDNALQSGNSQESVTEQDSKDSTYSLSSTLTLSKADYEKHKVYACEVTHQGLSSPVTKSFNRGEC
  EC50: 2.5 µg/mL
